From article PMC3034019 (The EMBO Journal, 2011) come the findings set out here.

For experiment [1], the target named is Oregon-Green-labelled actin monomers (OG-actin) (UniProt P68135 1-377, Oregon-Green (OG) label, position not stated). Kind of experiment: stopped-flow fluorescence kinetics.
Experiment [2] has the same target. The experiment is described as follows: other fluorescence titration.

Broadly, the kon is a measure of how fast the partners come together. A low value points to slower complex formation. For orientation: Kd means the free concentration of one partner at which half of the binding sites on the other are occupied at equilibrium, for simple one-to-one binding.

B1: EVH2 domain of Dictyostelium discoideum VASP (DdEVH2) (domain or fragment)
chain: GRNALLGSIENFSKGGLKKTVTVDKSAGVPTKTTPSANSAASNAGSEPSSGGSTPAPAPKSSGGGGGGDLMAEVMAKRAKMKAAASQPKEESSAPTPAPTPAPTPAPTPSSTSFKPPQSFSKPATKTAAANKPPSPSLSAPLPSTVANEDLQSLKEEILTEVRKEIQKAKDEILEAIRASQH
B1 displayed a kon in experiment [1] of 5.3e+07 M⁻¹ s⁻¹.
Take GRNALLGSIENFSKGGLKKTVT [DdGAB peptide (G-actin-binding site of Dictyostelium discoideum VASP)]: in experiment [2], the affinity, expressed as Kd, was 630 nM.
Same read-out and setting: the same measure for GLAAAIAGAKLRKVSK [hGAB peptide (G-actin-binding site of human VASP)]: 10300 nM; for GRNALLSDISKGKKLKKTVT [WIP-WH2-peptide (WH2 core motif of WASP-interacting protein)]: 840 nM.
